In article PMC2713827, “Characterization of a Lamellocyte Transcriptional Enhancer Located within the misshapen Gene of Drosophila melanogaster”:

Biological target: T1, dFos DNA-binding domain;dJun DNA-binding domain (Drosophila melanogaster;Drosophila …, UniProt P21525;P18289 418-481;212-275, |)
T1 sequence 1: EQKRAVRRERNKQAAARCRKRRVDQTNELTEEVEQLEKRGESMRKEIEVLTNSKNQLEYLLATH
T1 sequence 2: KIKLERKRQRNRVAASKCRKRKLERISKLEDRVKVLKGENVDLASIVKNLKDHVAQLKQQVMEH
Experiment: EMSA; 10 mM Tris-HCl pH 8.0, 10 mM DTT, 2.5 mM MgCl2, 10% glycerol, poly(dI-dC), BSA, 100 ng dJun and dFos, 1,000 cpm 32P probe; temperature not stated
Settings: protein: recombinant;recombinant; tags: 6xHis;6xHis; copies: 1;1; label: 32P

B1: hMTII wt AP-1 probe (dsDNA)
DNA 1: GAGCCGCAAGTGACTCAGCGCGGGGCGTGTGCAG
DNA 2: CTGCACACGCCCCGCGCTGAGTCACTTGCGGCTC
B1: binds.
